Measurements published in patent publication US20050202000.
Where “and” joins values, the source holds several entries; their conditions need not be identical. Identical values can stand only once.

Biological target: T1, plasminogen, P00747
T1 chain: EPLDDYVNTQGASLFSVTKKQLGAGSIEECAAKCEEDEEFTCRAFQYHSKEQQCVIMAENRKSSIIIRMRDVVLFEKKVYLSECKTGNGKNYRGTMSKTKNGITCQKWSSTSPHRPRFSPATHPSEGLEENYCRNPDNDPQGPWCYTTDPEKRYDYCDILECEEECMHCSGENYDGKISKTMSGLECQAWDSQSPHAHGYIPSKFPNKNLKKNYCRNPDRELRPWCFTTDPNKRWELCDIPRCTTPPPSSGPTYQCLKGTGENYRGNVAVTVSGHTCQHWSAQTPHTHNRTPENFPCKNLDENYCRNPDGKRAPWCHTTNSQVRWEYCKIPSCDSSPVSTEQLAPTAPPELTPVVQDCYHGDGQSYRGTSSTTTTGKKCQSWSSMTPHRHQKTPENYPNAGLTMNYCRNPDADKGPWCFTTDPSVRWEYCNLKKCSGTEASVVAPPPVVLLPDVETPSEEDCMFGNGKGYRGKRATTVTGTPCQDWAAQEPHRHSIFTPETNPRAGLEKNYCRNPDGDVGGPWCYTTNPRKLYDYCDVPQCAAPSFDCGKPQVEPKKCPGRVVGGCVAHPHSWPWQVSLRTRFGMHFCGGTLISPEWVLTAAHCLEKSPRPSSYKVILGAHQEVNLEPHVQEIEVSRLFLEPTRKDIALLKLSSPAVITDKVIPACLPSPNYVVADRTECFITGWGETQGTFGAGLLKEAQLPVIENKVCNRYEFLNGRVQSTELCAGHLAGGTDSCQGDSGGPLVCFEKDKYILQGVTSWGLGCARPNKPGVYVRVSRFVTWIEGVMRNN

| Protein | Kcat | Kcat/Km | Km |
| --- | --- | --- | --- |
| KGD-Sak · plasmin complex (protein) chain 1: SSSFDKGKYKKGDDASYFEPTGPTLMVNVTGVDGKRNELLSPRYVEFPIKPGTTLTKEKIEYYVEWALDATAYKEFRVVELDPSAKIEVTYYDKNKKKEETKSFPITEKGDVVPDLSEHIKNPGFNLITKVVIEKK chain 2: KVYLSECKTGNGKNYRGTMSKTKNGITCQKWSSTSPHRPRFSPATHPSEGLEENYCRNPDNDPQGPWCYTTDPEKRYDYCDILECEEECMHCSGENYDGKISKTMSGLECQAWDSQSPHAHGYIPSKFPNKNLKKNYCRNPDRELRPWCFTTDPNKRWELCDIPRCTTPPPSSGPTYQCLKGTGENYRGNVAVTVSGHTCQHWSAQTPHTHNRTPENFPCKNLDENYCRNPDGKRAPWCHTTNSQVRWEYCKIPSCDSSPVSTEQLAPTAPPELTPVVQDCYHGDGQSYRGTSSTTTTGKKCQSWSSMTPHRHQKTPENYPNAGLTMNYCRNPDADKGPWCFTTDPSVRWEYCNLKKCSGTEASVVAPPPVVLLPDVETPSEEDCMFGNGKGYRGKRATTVTGTPCQDWAAQEPHRHSIFTPETNPRAGLEKNYCRNPDGDVGGPWCYTTNPRKLYDYCDVPQCAAPSFDCGKPQVEPKKCPGRVVGGCVAHPHSWPWQVSLRTRFGMHFCGGTLISPEWVLTAAHCLEKSPRPSSYKVILGAHQEVNLEPHVQEIEVSRLFLEPTRKDIALLKLSSPAVITDKVIPACLPSPNYVVADRTECFITGWGETQGTFGAGLLKEAQLPVIENKVCNRYEFLNGRVQSTELCAGHLAGGTDSCQGDSGGPLVCFEKDKYILQGVTSWGLGCARPNKPGVYVRVSRFVTWIEGVMRNN | 1.46 s⁻¹ | 0.1 | 14.1 µM |
| RGD-Sak · plasmin complex (protein) chain 1: SSSFDKGKYKKGDDASYFEPTGPTLMVNVTGVDGKRNELLSPRYVEFPIKPGTTLTKEKIEYYVEWALDATAYKEFRVVELDPSAKIEVTYYDKNKKKEETKSFPITERGDVVPDLSEHIKNPGFNLITKVVIEKK chain 2: KVYLSECKTGNGKNYRGTMSKTKNGITCQKWSSTSPHRPRFSPATHPSEGLEENYCRNPDNDPQGPWCYTTDPEKRYDYCDILECEEECMHCSGENYDGKISKTMSGLECQAWDSQSPHAHGYIPSKFPNKNLKKNYCRNPDRELRPWCFTTDPNKRWELCDIPRCTTPPPSSGPTYQCLKGTGENYRGNVAVTVSGHTCQHWSAQTPHTHNRTPENFPCKNLDENYCRNPDGKRAPWCHTTNSQVRWEYCKIPSCDSSPVSTEQLAPTAPPELTPVVQDCYHGDGQSYRGTSSTTTTGKKCQSWSSMTPHRHQKTPENYPNAGLTMNYCRNPDADKGPWCFTTDPSVRWEYCNLKKCSGTEASVVAPPPVVLLPDVETPSEEDCMFGNGKGYRGKRATTVTGTPCQDWAAQEPHRHSIFTPETNPRAGLEKNYCRNPDGDVGGPWCYTTNPRKLYDYCDVPQCAAPSFDCGKPQVEPKKCPGRVVGGCVAHPHSWPWQVSLRTRFGMHFCGGTLISPEWVLTAAHCLEKSPRPSSYKVILGAHQEVNLEPHVQEIEVSRLFLEPTRKDIALLKLSSPAVITDKVIPACLPSPNYVVADRTECFITGWGETQGTFGAGLLKEAQLPVIENKVCNRYEFLNGRVQSTELCAGHLAGGTDSCQGDSGGPLVCFEKDKYILQGVTSWGLGCARPNKPGVYVRVSRFVTWIEGVMRNN | 1.41 s⁻¹ | 0.11 | 12.5 µM |
| Sak · plasmin complex (protein) chain 1: SSSFDKGKYKKGDDASYFEPTGPYLMVNVTGVDGKGNELLSPHYVEFPIKPGTTLTKEKIEYYVEWALDATAYKEFRVVELDPSAKIEVTYYDKNKKKEETKSFPITEKGFVVPDLSEHIKNPGFNLITKVVIEKK chain 2: KVYLSECKTGNGKNYRGTMSKTKNGITCQKWSSTSPHRPRFSPATHPSEGLEENYCRNPDNDPQGPWCYTTDPEKRYDYCDILECEEECMHCSGENYDGKISKTMSGLECQAWDSQSPHAHGYIPSKFPNKNLKKNYCRNPDRELRPWCFTTDPNKRWELCDIPRCTTPPPSSGPTYQCLKGTGENYRGNVAVTVSGHTCQHWSAQTPHTHNRTPENFPCKNLDENYCRNPDGKRAPWCHTTNSQVRWEYCKIPSCDSSPVSTEQLAPTAPPELTPVVQDCYHGDGQSYRGTSSTTTTGKKCQSWSSMTPHRHQKTPENYPNAGLTMNYCRNPDADKGPWCFTTDPSVRWEYCNLKKCSGTEASVVAPPPVVLLPDVETPSEEDCMFGNGKGYRGKRATTVTGTPCQDWAAQEPHRHSIFTPETNPRAGLEKNYCRNPDGDVGGPWCYTTNPRKLYDYCDVPQCAAPSFDCGKPQVEPKKCPGRVVGGCVAHPHSWPWQVSLRTRFGMHFCGGTLISPEWVLTAAHCLEKSPRPSSYKVILGAHQEVNLEPHVQEIEVSRLFLEPTRKDIALLKLSSPAVITDKVIPACLPSPNYVVADRTECFITGWGETQGTFGAGLLKEAQLPVIENKVCNRYEFLNGRVQSTELCAGHLAGGTDSCQGDSGGPLVCFEKDKYILQGVTSWGLGCARPNKPGVYVRVSRFVTWIEGVMRNN | 1.03 s⁻¹ and 1.06 s⁻¹ | 0.16 | 6.42 µM and 6.51 µM |
